Data from patent US20080311122A1 (AstraZeneca / MedImmune, published 2008).
Each block holds one binder with its values, some of them ahead of it.

Experiments:
[1] = molecular target: T1, recombinant HMG1 purified from E. coli as a calmodulin binding protein (CBP) fusion protein (human, UniProt A9RA84 1-215 (Papio anubis entry)); assay: cell-based or functional assay
T1 sequence: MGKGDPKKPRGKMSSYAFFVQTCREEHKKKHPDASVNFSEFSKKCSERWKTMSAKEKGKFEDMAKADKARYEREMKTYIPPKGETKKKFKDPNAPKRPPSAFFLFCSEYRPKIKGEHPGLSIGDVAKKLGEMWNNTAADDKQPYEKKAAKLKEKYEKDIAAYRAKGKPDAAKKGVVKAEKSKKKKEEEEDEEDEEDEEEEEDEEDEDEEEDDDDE

[2] = molecular target: T1, recombinant HMG1 purified from E. coli …; assay: ELISA, rHMG1 preincubated with antibody, coated RAGE-Fc
Procedure: HMG1 binding to RAGE-Ig by ELISA: 50 μl/well of RAGE-Fc fusion protein at 5 μg/ml in PBS was added to each well of an ELISA plate and incubated overnight at 4° C. The plate was then blocked with 200 μl of 5% milk at 37° C. for 1 hr and washed 3× with PBS/Tween. 50 μl/well of diluted HMGB1 solution. For dose curves, HMGB1 concentrations started at 4 ug/ml in PBS. For antibody blocking the HMGB1 was preincubated in another plate with human anti-HMG1 antibodies or buffer, then transferred to the RAGE-coated plate. The plates were then incubated at room temperature for 2 hours and washed 3×. To detect any HMG1 bound to the immobilized RAGE-Fc a mixture of biotinylated mouse anti-HMG1 mAbs (10D4, 4H11, 3E10 and 5C12) each at 1 ug/ml, total Ab: 4 ug/ml, were added to each well and the plate was incubated for 1 hour at room temperature. The plate was then washed and Strepavidin-HPR was added to each well and incubated 15 min. The plate was then washed 3× and blotted dry. 100 μl of TMB developing agent was added and the plate read at 650 nm. Values were calculated as percent of inhibition with HMG1 alone equal to 0% inhibition. The data in FIG. 9 and summarized in Table 1 represent the average of two separate experiments.

[3] = molecular target: T2, HMG1 purified from bovine (calf) thymus (bovine, UniProt P10103 2-215); assay: ELISA, wells coated with calf thymus HMGB1 at 5 ug/mL, antibody at 10 ug/mL, anti-human kappa/lambda-HRP, OD 490
T2 construct: also called Calf thymus HMGB1; thymus HMG1
T2 sequence (looked up): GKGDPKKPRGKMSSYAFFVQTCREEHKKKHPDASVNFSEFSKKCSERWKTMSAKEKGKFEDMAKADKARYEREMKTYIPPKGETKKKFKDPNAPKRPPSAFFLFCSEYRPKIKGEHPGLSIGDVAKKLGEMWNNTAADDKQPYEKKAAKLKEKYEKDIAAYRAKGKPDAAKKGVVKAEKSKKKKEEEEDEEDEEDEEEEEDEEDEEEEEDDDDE
Method in brief: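 Calf thymus HMGB1 or HMGB2 coated at 5 ug/mL in 10 mM PBS pH 7.2 overnight at 4 °C; anti-HMGB1 antibody added at 10 ug/mL final in PBS + 1% BSA, 1 h at room temperature. Detection with HRP anti-human kappa plus lambda (1:1000, 1 h), OPD substrate 20-30 min in the dark, H₂SO₄ stop, absorbance 490 nm.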

HMG2 = molecular target: T3, HMG2 (UniProt P40673 2-209, limits assumed); assay: ELISA, wells coated with HMGB2 at 5 ug/mL, OD 490
T3 construct: also called HMGB2; HMBG2
T3 sequence (looked up): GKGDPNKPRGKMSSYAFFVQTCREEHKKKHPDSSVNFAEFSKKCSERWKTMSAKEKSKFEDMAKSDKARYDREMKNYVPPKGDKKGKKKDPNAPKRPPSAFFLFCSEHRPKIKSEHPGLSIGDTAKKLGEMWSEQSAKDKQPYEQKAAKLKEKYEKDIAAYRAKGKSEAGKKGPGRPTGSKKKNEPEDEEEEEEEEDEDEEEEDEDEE
Procedure: Binding to HMG1 vs. HMG2: Ultra high-binding ELISA plates (ThermoLab systems, #3855) were coated with either 5 ug/mL of Calf thymus HMGB1 or HMBG2 diluted in 10 mM Phosphate buffered saline (PBS), pH 7.2 and incubate overnight at 4 degrees. The plates were washed twice with Ca and Mg free PBS and 100 microliters of anti-HMGB1 antibody diluted in 10 mM PBS, pH 7.2+1% bovine serum albumin (BSA) to a final concentration of 10 ug/mL was added to each well and the plates were incubated 1 hour at room temperature. The wells were washed three times with 100 μl of PBS, pH 7.2. HRP labeled goat-anti-human IgG Kappa-chain (KPL, #14-10-10) and goat-anti-human IgG Lambda-chain (KPL, #14-10-11) were diluted in 10 mM PBS+1% BSA 1:1000 and 100 μl were added to each well and incubated for 1 hour at room temperature. The wells were then washed three times with 100 μl of PBS, pH 7.2. OPD substrate (Pierce chemical company, #34006) was prepared following the manufacturers instructions and 100 μl of prepared substrate was added to each well and the plates incubated at room temperature in the dark for 20-30 minutes. The reaction was stopped with the addition of 100 μl of 2M H₂SO₄, and the plates read on a plate reader at a wavelength of 490 nm.

[4] = molecular target: T4, HMG1 B Box peptide amino acids 150-183; assay: ELISA, wells coated with HMG1 B Box peptide 150-183 at 10 ug/ml
T4 peptide: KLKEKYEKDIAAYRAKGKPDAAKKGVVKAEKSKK
Method in brief: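 Biotinylated peptides captured on avidin-coated wells (1% BSA block, 30 min, room temperature), then antibodies added in serial dilution from 10 μg/ml; for the coated-peptide format, plates blocked with 4% milk/PBS 1 h at 37 °C. Bound antibody detected with anti-human IgG-HRP and TMB, absorbance at 450 nm.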

B2: anti-HMG1 antibody S2 (antibody, V domains shown)
VH: EVQLLESGGGLVQPGGSLRLSCAASGFTFSGYMMVWVRQAPGKGLEWVSRISPSGGQTGYADSVKGRFTISRDNSKNTLYLQMNSLRAEDTAVYYCAREEGGSYGAFDIWGQGTMVTVSS
VL: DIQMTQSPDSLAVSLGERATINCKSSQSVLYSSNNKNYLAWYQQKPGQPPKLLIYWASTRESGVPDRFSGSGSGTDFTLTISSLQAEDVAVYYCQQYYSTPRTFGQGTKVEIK
notes: also called ATCC PTA-6142
IC50, inhibition of rHMG1 stimulated IL-1β release from human PBMC [1]: 0.22 µg/mL | IC50, inhibition of rHMG1 stimulated IL-6 release from human PBMC [1]: 0.163 nM | IC50, inhibition of rHMG1 stimulated TNF-α release from human PBMC [1]: 0.0642 µg/mL | percent inhibition of HMG1 binding to RAGE-Fc [2]: ≥ 35% | binding result (HMG2): no binding (tested: 10 ug/mL (not on the sheet)) | binding result [4]: no binding (tested: 10 ug/ml (log 1.00)) | binding result [3]: binds

B3: anti-HMG1 antibody G4 (antibody, V domains shown)
VH: EVQLLESGGGLVQPGGSLRLSCAASGFTFSWYDMTWVRQAPGKGLEWVSSISPSGGYTKYADSVKGRFTISRDNSKNTLYLQMNSLRAEDTAVYYCTTEFYDYLDVWGKGTTVTVSS
VL: DIQMTQSPGTLSLSPGEGATLSCRASQSVSSTYLAWYQQKPGQAPRLLIYEASKRATGTPARFSGSGSGTDFTLSISSLEPEDFAVYYCQHRHNWPPQWTFGQGTKVEVK
notes: also called ATCC PTA-6258
IC50, inhibition of rHMG1 stimulated IL-1β release from human PBMC [1]: 5.01 µg/mL | IC50, inhibition of rHMG1 stimulated IL-6 release from human PBMC [1]: 0.9 nM | IC50, inhibition of rHMG1 stimulated IL-12 release from human PBMC [1]: 0.715 µg/mL | IC50, inhibition of rHMG1 stimulated TNF-α release from human PBMC [1]: 5.51 µg/mL | binding result (HMG2): no binding (tested: 10 ug/mL (not on the sheet)) | binding result [4]: no binding (tested: 10 ug/ml (log 1.00)) | binding result [3]: binds

Further lines, with some results ahead:

IC50, inhibition of rHMG1 stimulated IL-1β release from human PBMC [1]: 6.05 µg/mL | IC50, inhibition of rHMG1 stimulated IL-6 release from human PBMC [1]: 0.56 nM | IC50, inhibition of rHMG1 stimulated IL-12 release from human PBMC [1]: 1.24 µg/mL | IC50, inhibition of rHMG1 stimulated TNF-α release from human PBMC [1]: 1.44 µg/mL | percent inhibition of HMG1 binding to RAGE-Fc [2]: ≥ 35% | binding result [3]: binds
B1: anti-HMG1 antibody S16 (antibody, V domains shown)
VH: EVQLLESGGGLVQPGGSLRLSCAASGFTFSWYSMLWVRQAPGKGLEWVSYISPSGGFTNYADSVKGRFTISRDNSKNTLYLQMNSLRAEDTAVYYCARWDYNSGWYYDHWGQGTLVTVSS
VL: DIQMTQSPDTLSLSPGERATLSCRASQSVNSRNLAWYQQKPGQAPRLLIYGASTRATGIPDRFSGSVSGTEFTLTISSLQPDDFATYYCQQYNSYFTFGQGTKLEIK
notes: also called ATCC PTA-6259

IC50, inhibition of HMG1 stimulated NO release from macrophages [1]: 4.15 µg/mL | IC50, inhibition of rHMG1 stimulated IL-1β release from human PBMC [1]: 0.0232 µg/mL | IC50, inhibition of rHMG1 stimulated IL-6 release from human PBMC [1]: 0.174 nM | IC50, inhibition of rHMG1 stimulated TNF-α release from human PBMC [1]: 0.0182 µg/mL | percent inhibition of HMG1 binding to RAGE-Fc [2]: ≥ 35% | binding result [4]: no binding (tested: 10 ug/ml (log 1.00)) | binding result [3]: binds
B4: anti-HMG1 antibody S6 (antibody, V domains shown)
VH: EVQLLESGGGLVQPGGSLRLSCAASGFTFSWYDMSWVRQAPGKGLEWVSRISPSGGYTMYADSVKGRFTISRDNSKNTLYLQMNSLRAEDTAVYYCARLEVGATSGGTAFDIWGQGTMVTVSS
VL: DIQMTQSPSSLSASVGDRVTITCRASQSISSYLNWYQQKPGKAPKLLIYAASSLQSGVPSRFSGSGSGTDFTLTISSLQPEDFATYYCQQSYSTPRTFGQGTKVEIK
notes: also called ATCC PTA-6143
binding result (HMG2): no binding (tested: 10 ug/mL (not on the sheet))
